The values that follow come from the supplement of paper PMC12042874.

± gives the uncertainty stated by the source.

A short description of this data set: amyloid nucleation score (Sup35N fusion, yeast selection) (log enrichment); library NNK2; higher = more nucleation; inactive = no reads after selection. In outline: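 On medium lacking adenine and uracil, psi-negative yeast expressing peptides of 20 random codons fused to Sup35N were grown 7 days at 30°C after a 24-hour induction with 100 μM copper sulfate. Illumina sequencing of input and output plasmid inserts gave the reads, and sequences under 100 input reads were excluded. The nucleation score is the DiMSum log enrichment of output over input reads, centred on the mode score of non-aggregating sequences.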
Regarding VVNTVYSFSE, the amyloid nucleation score was found to be 0.332 ± 0.35. The same measure for VVPYS: “inactive”; for VVQGVIFNGDMLNRGSLGKI: -0.129 ± 0.79. Then VVRGRSGLCNMFWCDRQRRL, with -0.63 ± 0.34; and VVSCGYARHDVGDFWLRDCR, with 0.481 ± 0.38. Then VVSFSVRSIPCSRVSFMAFS, with -0.304 ± 0.54.

In the case of VVSPRVTGNME, the amyloid nucleation score was found to be 0.302 ± 0.23. The same measure for VVSVFSSYVRQCCYGGWEV: 6.67 ± 0.077.

The substance VVVDGSLRVNLVSQGDPNNV came in with an amyloid nucleation score of 1.07 ± 0.25. The same measure for VVVHSTLLGFWIIF: “inactive”; for VVVIGNFVSPRDIRFISMYT: 8.118 ± 0.047; for VVWWGVNR: 0.091 ± 0.38. As to VVYSSSFVAGLYDSMCWMWG, the amyloid nucleation score turned out to be 1.49 ± 0.24. The same measure for VWDHVAGARALTWLRMLLKQ: “inactive”.

In turn, VWDLMLKKAFTNSSNCYSVA registered an amyloid nucleation score of 1.19 ± 0.19. Then VWEVAMISTINSAGHLCLGD, with -0.109 ± 0.76; and VWGFVSGIESMCGSKAPNGG, with -0.158 ± 0.33.

For the substance VWHLLRKSFSFR, the amyloid nucleation score is 0.619 ± 0.8. The same measure for VWKVVKIRAL: “inactive”; for VWMDIRSYLVGGLLTAVPRD: 0.481 ± 0.2. The same measure for VWPLCGCAWRWSGKWGGTRW: 6.41 ± 0.077.

The substance VWVCSRTGQSQYIISYTALW gave an amyloid nucleation score of 1.65 ± 0.2. The same measure for VWWFIYVLGVVSTDAKVSPS: “inactive”. Then VYALCMGLAWKGLDYHKGER, with 5.68 ± 0.07. The same measure for VYCSSCSVFLLCVKNLSWCV: 8.658 ± 0.053. For the substance VYEVNGLSAGRMMSICNRRN, the amyloid nucleation score was -0.467 ± 0.44.

As to VYFFCYSFTYEEGMAIRKSC, the amyloid nucleation score was -1 ± 0.78. The same measure for VYFSCFSLWSSYDVIGRWSC: 7.446 ± 0.036; for VYGFP: 7.112 ± 0.048. The same measure for VYLDWFYWPDTIHG: 4.87 ± 0.075; for VYLFGGIRFDR: 4.04 ± 0.049. The same measure for VYLINRWVYPWEFIVHIIRV: “inactive”. The substance VYMGSDL registered an amyloid nucleation score of 6.07 ± 0.072. Then VYQYICFRVYGVVHWVGSSA, with 1.4 ± 0.28.

VYRQNLNLNME displayed an amyloid nucleation score of 0.189 ± 0.64. The same measure for VYSANSWH: -0.364 ± 0.3; for VYVIFPPLSTSLPVSMSYNL: -0.548 ± 1.1; for VYYLCVWF: -1.18 ± 0.41. The same measure for VYYLVCGL: 0.147 ± 0.38; for VYYVSRLLTFFPVSSNPCGS: 0.566 ± 0.56; for WAFNPTELLVDAQKSRGRIW: “inactive”. Then WANFWSGWKVTLVCCCKIVA, with 3.7 ± 0.078. Consider WAVSATWWNFLSVYRKLSDL, for which the amyloid nucleation score is -0.095 ± 1.1. The same measure for WAYAVNPTCYNFVGTGGSCS: 2.44 ± 0.11. In turn, WCLSLPVRDSTVCLSTVLSG came in with an amyloid nucleation score of 0.294 ± 0.29. The same measure for WCMLRYCVESGLSVSFMHFS: -0.626 ± 0.63. Then WCSNR, with 0.153 ± 0.45. The same measure for WDALGNVRRAMWVPS: 0.048 ± 0.41; for WDGNYSSKVCFTQLRMSWCL: 1.75 ± 0.27. Substance WDGYGVYFQTQAKVR returned an amyloid nucleation score of 0.102 ± 0.63. For WDRTTDSSFQVRKYQSENFL, the amyloid nucleation score was determined as 0.092 ± 1.1. The same measure for WDSIVDVSSKIAFFRMNDSS: -1.41 ± 0.62; for WDTSGRFVLNWVFWEGHPKM: 0.768 ± 0.56; for WFAKRW: “inactive”. The same measure for WFAWYCSSRYRHRR: 3.57 ± 0.087; for WFDGDQDSNRQTVPIPQLPP: 0.549 ± 0.45. The same measure for WFFYWMYRGYSINMIFEMLD: -2.15 ± 0.49.
